In the assay the target is linear triubiquitin (UniProt P0CG48). Kind of assay: BLI.
linear triubiquitin, sequence (P0CG48 1-228): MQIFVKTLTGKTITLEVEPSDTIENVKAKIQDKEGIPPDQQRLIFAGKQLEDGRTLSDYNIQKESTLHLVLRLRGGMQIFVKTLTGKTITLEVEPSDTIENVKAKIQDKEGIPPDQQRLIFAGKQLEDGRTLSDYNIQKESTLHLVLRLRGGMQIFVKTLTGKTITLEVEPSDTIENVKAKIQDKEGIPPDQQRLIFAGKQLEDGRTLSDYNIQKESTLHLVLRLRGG

B1: singly biotinylated A20 zinc finger 7 (ZnF7: P758-G790) (domain or fragment)
chain: PKQRCRAPACDHFGNAKCNGYCNECFQFKQMYG
modifications: biotin (singly biotinylated)
Take B1: the binding result is recorded as “binds”.

Source of the values: paper PMC9680732 (Biophysical Reports, 2021).
